These results are taken from paper doi:10.1101/489898.

For the assay, the target named is horse liver alcohol dehydrogenase (horse). The assay is described as follows: cryo-EM structure.

By stoichiometry N is commonly meant a count of units in the complex or per binding partner. The substance “horse liver alcohol dehydrogenase (enzyme)” gave a stoichiometry N of 2.
